This data set in a line: label from the status in PepcDB records.

As to “MAALSEKEAEAYLDARPRYPIDWFKKIAARTQDHKFAWDVGTGNGQAAIGLVEHYENVVATDINEAQLQRAIKHSRISYHHTPTTISEDEMVDLLGGENSVDLIVAAQAVHFFDLNVFYNVAKRVLRKEGGLIAVWVYNDIIISHEIDPIMKRLVDSTLPFRTPIMNLAFDGYKTLTFPFETIGMGSEGKPITLDIPHKLSLKGFIGFLRSWQPAMKAKEKGVELINEDLITKFEEAWGDETQVKDVFYKAHMIVGKIPEEKFESDQVLSNKGRLLLETEVGRNQKRPQPSDEGDRQSKKQNTSEDDACKDKPSSVFSTHYRF”, the protein production result is given as “failed”.
Turning to “MAALSNLKQCPPFSTLPDLALRHNHIPELERYPQINLNSELLANPAGQRYYGGQSFVSVNEGVLKRIARSFFNGGFWKTLEEARSPETREQAPLIAQAGDLIAQFLGLATGLRILPHTQQLSAERIAQFVETRDWLNSDVRYLAWNQHFFCLAVAGVDDVVRIYTKSSSATTATVLKSPSQTQITCMAWRPLCASEIVIGCRQGLCFWEVDSTLHLGRTNAPSEIFKYPNNLPITSMQWNKDGTQLATASIGDRSIIIWQPDTGMMQPLKRLGPPGSLLKWSPDNDWLFAATVDRVFRVWNCHQQWTTERWVCGPGGYVQTACWSPCGRFLLFVSSAEPILYRLQFVQQSLLSSSADEKEILPIADLNACSIDANRTLVGGPAQQLAWDPHGNYLVVTFKATNCIAVFRTFIQKFDLQISAAYYLSGETAAEHPSFICFQPLYEDNDRSVLTIAWSSGRIQYYAFD”, the protein production entry is reported as “failed”.
Consider “MAAPLIPVLTAPTAAGKTALALRLAREYGLEIVAADAFTVYRGLDLGTAKPTPQERASVPHHLLDVVDVTQSYDVAQYAAQAEAAIVDILARGRLPLVVGGTGFYLSALSRGLPLTPPSDPKMRAALEAELQERGLDALLAEIEQANPAEAARMERNPRRVVRALEVYRAAGRFPGEFGYSPPAFQYQVFAFSPPAAEMEQRVQERTAAMLRAGWPQEAQWLAGQVPPEQEPRPTVWQALGYAEALAVAQGRLSLAGAEQAIALATRQYGKRQLTWMRRQLGAEVQSPDAAEAHLRAFLERSGAPSLEHHHHHH”, for which the protein production entry was “failed”.
“MAAPSGVPPMRVLEELGINLSPTGEVTETEAVAAEGAYYLEQVTITETSEDECEYEEIPDDNFSIPEGEEDLAKAIHMVDEQATDTHILEQQTILPSRHVMQEAIEDFLCNFLIKMGMTRTLDCFQAEWYELIQKTGSDLRTLGNVPDVYSQVMLLETENKNLKKDLKHFKQAAEKAKEDLLKTQKERDFHRMHHKRILQEKNKLIADLKGLKLHYASYEPTIRVLHEKHHALLKEKMLTSLERDRAVGKISGLQATLKNIDIGHIQVPVIKGSYETASILRELGDKAGHTYEKENSSEGPTQKNLREAREENGYKTKMKSERKDSEFPVDMQPDPNLTACTESLPTAKFDYRLNNIFRLHELPVSCICTHSVRDTMILCSEVRMWAGVGMDSGSISITPSGISRWISGCCDHPNRSWLLTSNGNRTLSLWELPEGKCTLTLQSLCQHHHFIWSCSWHICSRCAAQSSYRSTPKVWFLSVERCRYTLYGHTDSVNSIEFFPFSNTLLTASADKTLSVWDARTSHCQQSLYGHIRNIHIVKFTTPRLRGHILASCDSRGVIKLWDFRKLIPIVSIDVGPSPGNEVNFDPSGRVLAQASANGIIHLLDLKSGQIHKLVGHESEVHTVIFSHRAENLYSGGSDGTIRLWL”: the protein production entry was “failed”.
For “MAASFAFLRDVRPYKTSWRVQVKVLHSWCQYTNMTGETLKLVLVNSQGVKIHASVKKDLVSKYVNNLPLNEWTFIETFALNHASGQFRPTGHLYKMSFVTGTQVIRCDS”, the protein production result is recorded as “not failed”.
In the case of “MAASPKDPLDWAALLQLQMDEAFDFILRSEAGSVAECDLSPPVDIFETPDAFSVEFDLPGTDPADLSLKLCCNMLILEGVKRDDSREGGSYLCLERRFGRFCRTVEIPPTVDVSAVRADYRRGVLTVTFPRLSDRRKVMRDIPIIQGDN”, the protein production result was “failed”.
For “MADDDHIEAVLARLSRPQKLALVRGATDPEGTATGYLSGVEEAGIPPFRLVDGPLGIRAEGQRATAFPASIATAATFDPDLARQQGAAMGREAAALGQDALLAPGVNIIRVPHCGRNFEYLSEDPVHAGAVGAGLIDGIQSADVVATVKHFVANNQETHRTTVSTEVDERTLRELYLPPFRSAVDAGVGSVMTAYNRVNGTHMSDHGRLVGDVLKSEWGFNGYVVSDWYGLESTVGAANAGMDVEMPGVAAPGAAEAANSDTADDAEEFEWPDGIPDATRAGLFGDPLVEAIDSGEVPAERLDDMVRRVLGQMDRFGRLDGSRTAAEDGASDDQAGELDSQRHRDIAADVAARGTVLLDNDGVLPLADGADVAVIGPNIDEPKLGGGGSSETTPVHSVTPVAGIESRAEGAVTTAFGVPQIESVSLFDLLPFVGEDDDTDGTAADIAQQDPSLDDAVDAAAAADVAVVFVRDATTEARDRDSLALPGQQDDLVSAVAATNENTVVVVRSGGPVELPWREDVAAVLEQWYPGQADGDAAAAVLYGDRDPSGRLPVTFAPEGEYPTAGAERRYPGVDDEVHYDEDVFIGYRHFDDEDADPTYPFGHGHSYATFEYGDAEITGEWTVAVPVKNAADRPGREVIQAYVRPPSVDGVDRPRRELAGFEAVQLDADEQKTVALTLDDLAFSRYDPNSGWTVDTGTYTVEIGRSSRDIRTTVPVDR”, the protein production entry is listed as “failed”.
With “MADIRVTHEAQVTVISFPAVFQRLRETEVEQIASTFLAAMQGAQPRKVLIDLEGVEFFGSSFIELLVRGWKRIKEDQQGVFALCSVSPYCVEVLQVTHIDEVWPRYSTKQEALLAMAS”, the protein production entry is given as “not failed”.
Under “MADLFDGMKRRMDALIAERFGMKVNINGTDCIVVESDFLAELGPVEGNGKNVVVFSGNVIPRRGDRVVLRGSEFTVTRIRRFNGKPQLTLEENNGGKGA” stands “not failed”; under “MADRPHPYDRAPGGSSGSHDRTGVFRRNPDGGLPDRIDSLYRPEPAARSASDAAATRRLSRTSGTPPRRPTPRSRGRDSGGWERRERERRARRRKKAAVLVLVLLLLLPTVGYLWANSRLNRVAALVPYEGRPDDQPGTTYLIVGSDSREGLSDEDMEALRTGKAEGKRTDTIMVLYVPTEGRPAIISVPRDSYVEIPGIGANKINAAYAEALGGGPATLVRTFEQASGVRIDHYVEIGFAGFVDIVDAVGGVELCPEEAMEDPKAGLDIEAGCQVMDGPTALGYVRTRATPRADLDRIQRQREFFSALIQQATAPSTLFNPFRSIPLVLSGTSTFSVDEGDSLMDLAWLALAMRDSPATTAVPVGSTPTLDVGSVVLWDEARAEEMFAAMREGRPIPESAMQD”, “failed”.
In the case of “MADSSNKKKAASHESKKSNMEIMFSGSDSLTKRERRKKKQLIARSVGFALIGIEVIALIIFLAALFKLNMIPAKYMAMLIGILLLITVYNVLSQFTKAHWVGKVLAVLLAVVMFVGSSYIGKANSVISNIAGVTTKTDTFSLVVLATDPATGVEATKNYTFGYNKINNKDMAESLIQEVNTTLGTNVKTRTYDNWTNIINALYNNEVKVIVFNESNRAMLEEQFTDFEEKTKVIYTKTYTTQIKENVVNKNTATESFTIYVSGNDDYGAISANGRSDVNIVATFNPKTRQVLMVSTPRDYWVPVDTLSTDSNGKAVTGYEKLTHAGNYGVDSSISTLESLYGVDVDYYVKVNFTGAVGVIDALGGITINSDVKFTNGEDAAPVAYNFVVGPNECDGEKALAFCRERQAFSDGDNQRGRNQMAAIEGMIDKATSTAILTQYNKVLDAVSGLIATNMPDSAISNLVKAQINDPTGWNIMSYSVSGTGATKTGQLFGIVGMSVIEPDYSTVNTAIELMSKVRNGEVFDIDQFLEDKALESGTTQAR”, the protein production entry is “failed”.
On to “MADSTAMADAIWFGGPIVTIDAHTPSARAVAVRDGRIMAVGREHAVLRYRGPDTRMHDLRGATLLPGFVDAHSHVSTVGLEHHHHHH”, for which the protein production result was “failed”.
In the case of “MADTVEEPQLQNGAAPAESETEQNPIPEPQLQTEPKLTGEIPEIEADLTPEEVQSEVTDAKPEEVQSEVKPEEVKTVVTDAKPEEAQSEVKPEEVQSVVTDTKPDLTDVDLSPGGSEEIPIRSTEVEQESTTSVLKKDDDGNKTFTMRELLSELKSEEGDGTPHSSASPFSRESASQPAENNPAMDLINRIQVNDEEGRSRQRVLAFAARKYASAIERNPDDHDALYNWALILQESADNVSPDSVSPSKDDLLEEACKKYDEATRLCPTLYDAYYNWAIAISDRAKIRGRTKEAEELWEQAADNYEKAVQLNWNSSQALNNWGLVLQELSQIVPAREKEKVVRTAISKFRAAIRLQFDFHRAIYNLGTVLYGLAEDTLRTGGSGNGKDMPPGELYSQSAIYIAAAHSLKPSYSVYSSALRLVRSMLPLPHLKVGYLTAPPVGNSLAPHSDWKRTEFELNHERLLQVLKPEPREMGRNLSGKAETMSTNVERKTVKVNITEIVSVTPCADLTLPPGAGLCIDTIHGPVFLVADSWESLDGWLDAIRLVYTIYARGKSDVLAGIITG”, the protein production entry is “failed”.
Turning to “MADVVVGIQWGDEGKGKIVDRIAKDYDFVVRYQGGHNAGHTIVHKGVKHSLHLMPSGVLYPKCKNIISSAVVVSVKDLCEEISAFEDLENRLFVSDRAHVILPYHAKKDAFKEKSQNIGTTKKGIGPCYEDKMARSGIRMGDLLDDKILEEKLNAHFKAIEPFKKAYDLGENYEKDLMGYFKTYAPKICPFIKDTTSMLIEANQKGEKILLEGAQGTLLDIDLGTYPFVTSSNTTSASACVSTGLNPKAINEVIGITKAYSTRVGNGPFPSEDTTPMGDHLRTKGAEFGTTTKRPRRCGWLDLVALKYACALNGCTQLALMKLDVLDGIDAIKVCVAYERKGERLEIFPSDLKDCVPIYQTFKGWEKSVGVRKLDDLEPNVREYIRFIEKEVGVKIRLISTSPEREDTIFL”, the protein production entry was “failed”.
Under “MADWLIGLIMGAVEGLTEFLPVSSTGHMILTGHLIGFDDERAKVFEVVIQLGSILAVVVIFWKRLWSLVGIGKVTDGPSLNLLHIIIGMIPAGVLGVLFHSTIKEGLFGPGPVVISLVAGGILMIVAEKFSKPSTARTLDEITYKQAFTIGMFQCLALWPGFSRSGSTISGGLLARVSHTAAAEYTFILAVPMMVAASGLDLIKSWDVLSSADITLFVTGFVTAFVVAMLAIVSFLKLLSRVKLTPFAYYRFILAAVFYFFIM” stands “failed”; under “MAEAGDENLYAAARDIARALGKDPSAAGDILQILSGYGASGNRGGDPRPTPSRGGSNVNFDRALTSLERQISSYIVEDRPIWSDPVDSRTFLDSVDELLAIAGDLRSMAGDKSVAVCQSRADELIQQVMFRLQEEFGFVMDRAPDSFDSDDEFPGEEDNDTSDGVIVARPITDYKIVIEALQSSVIGDLNAIAVRMVAGGFAKECSRVYSSRRREFLEESLSRLHLRGLSMEEVQESPWQDLEDEIDRWIKAVTLIFHVFFPSERLLCDRVFSDLPVSSVTDLSFMEVCRGTTTQLLNFADAIALGSRLPERLFKVVDLYEAMQDLIPKMETLFSDRYCSPLRHEALAIHKRLGEAIRGIFMELENLIRRDPPKTAFPGGGIHPITRYVMNYLRAACKSRQSLEQILDQTGNETGSDTRPLSVQIIWVLELLESNLEGKKRTYRDPSLCFLFMMNNDKYILDKAKDNELGLVLGEDWIVKHAAKLRQYHSNYRRSSWNQVVGLLRTDGPYPKLVENLRLFKSQFDEVCKVQSQWVVSDGQLREELRSSVAGIVSPAYSNFIRRLKESPEINGRRGEPFIPYTVEDVEFIIKRLFKESSS”, “not failed”; under “MAEARPDSLTRSRAAKPAGEGAAFSPLYRQIKELLVQSLDRGEWKPGELIPSEIDLAARFQVSQGTVRKAVDELAAEHLLLRRQGKGTFVATHHEARVRYRFLRLAPDEEGEGGRAESRILECRRLRAPAEIARALELRAGETVVTIRRQLSMNHMPTVIDDLWLPGTHFRGLTLELLTASKAPLYGLFESEFGVSMVRADEKLRAVAASPEIAPLLGVEPGRPLLQVDRISYTYGDRPMEVRRGLYLTDHYHYRNSLN”, “not failed”.
Regarding “MAEASIQIEVVYATVQRQVLMTVDVPAGSSVRQALALCGMDREFPELDLSHCPVGIFGKVVADPAARVLEAGERIEIYRPLLADPMEIRRLRAAKAREKRTLPG”, the protein production result is “failed”.

These data come from a protein production outcome set (Wang et al. 2014).
